Reference: paper PMC9254107, “The Toxoplasma glucan phosphatase TgLaforin utilizes a distinct functional mechanism that can be exploited by therapeutic inhibitors” (The Journal of Biological Chemistry, 2022)

Substrate: O=[N+]([O-])c1ccc(OP(=O)(O)O)cc1
Experiment: purified protein, by the assay type

B1: TgLaforin (Toxoplasma gondii ME49) (protein)
chain: MRVRFSVTAFVPPNAQLGVVGSAPFLGEWKLEHCVPLMPYSAPHPQGLEPSLWFRDIDLDPASCPNDTNDVHSTAAVSASCSADRRRCDLSRQSPHCFPSARSASPYMVEVSRGDCPFAVELMSTSQHVLSEFSKHNSPVYSAGEQRFRRSLPSSASFSSCTSSGSAVAATKCVWDAAAYRVATRAPEVQAVLESHPLRHCAFEYKFVLWYPPNGEIAVPYVPTTAGEEVPITYAGDSEVLNEESEGGARRRSWRKWLFPPSPSRCPAPPGPSESIVWEGFGPDSNRKFCFDPFDVVVDVNELGDLECLYICRIAHFRDPRAGGVGEYDLTTRFYNSVKSECRMHYSTIFPRFFVGSCPRQLKHIRHLKEELKVTCVVNLQTEQDLCNNYPDPIASSRSAEAVSQLYDGSGLRYVWLPTADMCDSARKIAVANAAFLLLGLFQSGHSVYMHCNAGVGRSVAAACAFLCFAVGLDLRKVNFLICARRPVAYWDEKAMKYGIGDYQAKFGHCRVVGEEAEERQHA
For B1, the Km (other: pH 5.5, 37 °C) was 1000 ± 50 µM and the Vmax (other: pH 5.5, 37 °C) was 1.4 ± 0.02 nmol PO4/min.

B2: VHR (Vaccinia H1-related phosphatase) (Homo sapiens) (protein)
chain: MSGSFELSVQDLNDLLSDGSGCYSLPSQPCNEVTPRIYVGNASVAQDIPKLQKLGITHVLNAAEGRSFMHVNTNANFYKDSGITYLGIKANDTQEFNLSAYFERAADFIDQALAQKNGRVLVHCREGYSRSPTLVIAYLMMRQKMDVKSALSIVRQNREIGPNDGFLAQLCQLNDRLAKEGKLKP
B2 was tested, and the Km (pH 5.5, 37.0 °C) was 2500 ± 100 µM.
